Publication PMC9352680, “A comprehensive thermodynamic model for RNA binding by the Saccharomyces cerevisiae Pumilio protein PUF4”

T1: PUF4 RNA-binding domain (Saccharomyces cerevisiae, UniProt P25339 537-888)
T1 sequence: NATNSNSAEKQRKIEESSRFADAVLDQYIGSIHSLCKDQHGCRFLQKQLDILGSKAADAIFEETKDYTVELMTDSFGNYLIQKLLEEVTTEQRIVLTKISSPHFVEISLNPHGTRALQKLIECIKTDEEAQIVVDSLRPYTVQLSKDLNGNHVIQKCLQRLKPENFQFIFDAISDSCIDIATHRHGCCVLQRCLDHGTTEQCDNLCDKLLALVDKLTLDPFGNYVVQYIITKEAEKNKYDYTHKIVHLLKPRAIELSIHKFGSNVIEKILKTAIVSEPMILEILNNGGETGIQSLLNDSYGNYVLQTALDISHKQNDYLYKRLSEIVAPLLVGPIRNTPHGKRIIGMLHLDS


Molecular target: T1, PUF4 RNA-binding domain
Assay: Mg; RNA-MaP; 20 mM Na-HEPES pH 7.4, 30 mM KOAc, 0.75 mM MgCl2, 0.1% Tween-20, 5% glycerol, 0.1 mg/mL BSA, 2 mM DTT; 25 C; 0.0125-409.6 nM protein
Conditions: tags: N-His6-TEV cleaved; C-SNAP kept, Cy3B-labelled; label: tethered on chip by stalled RNA polymerase

Binder	Kd
Ib_S2_P5E.1_K5.1_C5.1_H5.1_[G2A]_[A4C]_A5.1_F5.1_T5.1 (ssRNA) RNA: UUUGAUUAAUAUGAUAUCGUUCUUUCUUAUCUUAUUAUUCUUUCUCGAUAUCAUAUUAAUCUUU	810 nM
Ib_S2_P5E.1_K5.1_C5.1_H5.1_[T3G]_[A4C]_A5.1_F5.1_T5.1 (ssRNA) RNA: UUUGAUUAAUAUGAUAUCGUUCUUUCUUGGCUUAUUAUUCUUUCUCGAUAUCAUAUUAAUCUUU	1020 nM
Ib_S2_P5E.1_K5.1_C5.1_H5.1_[T3G]_[A4T]_A5.1_F5.1_T5.1 (ssRNA) RNA: UUUGAUUAAUAUGAUAUCGUUCUUUCUUGGUUUAUUAUUCUUUCUCGAUAUCAUAUUAAUCUUU	965 nM
Ib_S2_P5E.1_K5.1_C5.1_H5.1_[T3C]_[A4C]_A5.1_F5.1_T5.1 (ssRNA) RNA: UUUGAUUAAUAUGAUAUCGUUCUUUCUUGCCUUAUUAUUCUUUCUCGAUAUCAUAUUAAUCUUU	1540 nM
Ib_S2_P5E.1_K5.1_C5.1_H5.1_[T3C]_[A4T]_A5.1_F5.1_T5.1 (ssRNA) RNA: UUUGAUUAAUAUGAUAUCGUUCUUUCUUGCUUUAUUAUUCUUUCUCGAUAUCAUAUUAAUCUUU	930 nM
Ib_S2_P5E.1_K5.1_C5.1_H5.1_[T1C]_A5.1_[T5C]_F5.1_T5.1 (ssRNA) RNA: UUUGAUUAAUAUGAUAUCGUUCUUUCUCGUACUAUUAUUCUUUCUCGAUAUCAUAUUAAUCUUU	331 nM
Ib_S2_P5E.1_K5.1_C5.1_H5.1_[T1A]_A5.1_[T5C]_F5.1_T5.1 (ssRNA) RNA: UUUGAUUAAUAUGAUAUCGUUCUUUCUAGUACUAUUAUUCUUUCUCGAUAUCAUAUUAAUCUUU	> 2300 nM
Ib_S2_P5E.1_K5.1_C5.1_H5.1_[T1A]_A5.1_[T6C]_F5.1_T5.1 (ssRNA) RNA: UUUGAUUAAUAUGAUAUCGUUCUUUCUAGUAUCAUUAUUCUUUCUCGAUAUCAUAUUAAUCUUU	1680 nM
Ib_S2_P5E.1_K5.1_C5.1_H5.1_[T1A]_A5.1_[A7G]_F5.1_T5.1 (ssRNA) RNA: UUUGAUUAAUAUGAUAUCGUUCUUUCUAGUAUUGUUAUUCUUUCUCGAUAUCAUAUUAAUCUUU	> 2300 nM
Ib_S2_P5E.1_K5.1_C5.1_H5.1_[G2C]_A5.1_[T5A]_F5.1_T5.1 (ssRNA) RNA: UUUGAUUAAUAUGAUAUCGUUCUUUCUUCUAAUAUUAUUCUUUCUCGAUAUCAUAUUAAUCUUU	870 nM
Ia_S2_P5E.1_K5.1_C5.1_H5.1_[T1C]_A5.1_F5.1_T5.1 (ssRNA) RNA: UUUGAUUAAUAUGAUAUCGUUCUUUCUCGUAUUAUUAUUCUUUCUCGAUAUCAUAUUAAUCUUU	258 nM
Ib_S2_P5E.1_K5.1_C5.1_H5.1_[G2T]_A5.1_[T5C]_F5.1_T5.1 (ssRNA) RNA: UUUGAUUAAUAUGAUAUCGUUCUUUCUUUUACUAUUAUUCUUUCUCGAUAUCAUAUUAAUCUUU	> 2300 nM
Ib_S2_P5E.1_K5.1_C5.1_H5.1_[G2A]_A5.1_[T5G]_F5.1_T5.1 (ssRNA) RNA: UUUGAUUAAUAUGAUAUCGUUCUUUCUUAUAGUAUUAUUCUUUCUCGAUAUCAUAUUAAUCUUU	1490 nM
Ib_S2_P5E.1_K5.1_C5.1_H5.1_[G2C]_A5.1_[T6A]_F5.1_T5.1 (ssRNA) RNA: UUUGAUUAAUAUGAUAUCGUUCUUUCUUCUAUAAUUAUUCUUUCUCGAUAUCAUAUUAAUCUUU	> 2300 nM
Ib_S2_P5E.1_K5.1_C5.1_H5.1_[G2T]_A5.1_[T6C]_F5.1_T5.1 (ssRNA) RNA: UUUGAUUAAUAUGAUAUCGUUCUUUCUUUUAUCAUUAUUCUUUCUCGAUAUCAUAUUAAUCUUU	2030 nM
Ib_S2_P5E.1_K5.1_C5.1_H5.1_[G2T]_A5.1_[T6A]_F5.1_T5.1 (ssRNA) RNA: UUUGAUUAAUAUGAUAUCGUUCUUUCUUUUAUAAUUAUUCUUUCUCGAUAUCAUAUUAAUCUUU	1970 nM
Ib_S2_P5E.1_K5.1_C5.1_H5.1_[G2A]_A5.1_[T6C]_F5.1_T5.1 (ssRNA) RNA: UUUGAUUAAUAUGAUAUCGUUCUUUCUUAUAUCAUUAUUCUUUCUCGAUAUCAUAUUAAUCUUU	353 nM
Ib_S2_P5E.1_K5.1_C5.1_H5.1_[G2T]_A5.1_[A7G]_F5.1_T5.1 (ssRNA) RNA: UUUGAUUAAUAUGAUAUCGUUCUUUCUUUUAUUGUUAUUCUUUCUCGAUAUCAUAUUAAUCUUU	> 2300 nM

Binder	Kd
Ib_S2_P5E.1_K5.1_C5.1_H5.1_[T3C]_A5.1_[T5G]_F5.1_T5.1 (ssRNA) RNA: UUUGAUUAAUAUGAUAUCGUUCUUUCUUGCAGUAUUAUUCUUUCUCGAUAUCAUAUUAAUCUUU	909 nM
Ib_S2_P5E.1_K5.1_C5.1_H5.1_[T3C]_A5.1_[T5C]_F5.1_T5.1 (ssRNA) RNA: UUUGAUUAAUAUGAUAUCGUUCUUUCUUGCACUAUUAUUCUUUCUCGAUAUCAUAUUAAUCUUU	276 nM
Ib_S2_P5E.1_K5.1_C5.1_H5.1_[T3C]_A5.1_[T6C]_F5.1_T5.1 (ssRNA) RNA: UUUGAUUAAUAUGAUAUCGUUCUUUCUUGCAUCAUUAUUCUUUCUCGAUAUCAUAUUAAUCUUU	531 nM
Ia_S2_P5E.1_K5.1_C5.1_H5.1_[T1A]_A5.1_F5.1_T5.1 (ssRNA) RNA: UUUGAUUAAUAUGAUAUCGUUCUUUCUAGUAUUAUUAUUCUUUCUCGAUAUCAUAUUAAUCUUU	> 2300 nM
Ib_S2_P5E.1_K5.1_C5.1_H5.1_[T3C]_A5.1_[A7G]_F5.1_T5.1 (ssRNA) RNA: UUUGAUUAAUAUGAUAUCGUUCUUUCUUGCAUUGUUAUUCUUUCUCGAUAUCAUAUUAAUCUUU	1600 nM
Ib_S2_P5E.1_K5.1_C5.1_H5.1_[T3C]_A5.1_[A7T]_F5.1_T5.1 (ssRNA) RNA: UUUGAUUAAUAUGAUAUCGUUCUUUCUUGCAUUUUUAUUCUUUCUCGAUAUCAUAUUAAUCUUU	676 nM
Ib_S2_P5E.1_K5.1_C5.1_H5.1_[A4G]_A5.1_[T5C]_F5.1_T5.1 (ssRNA) RNA: UUUGAUUAAUAUGAUAUCGUUCUUUCUUGUGCUAUUAUUCUUUCUCGAUAUCAUAUUAAUCUUU	9.3 nM
Ib_S2_P5E.1_K5.1_C5.1_H5.1_[A4C]_A5.1_[T5G]_F5.1_T5.1 (ssRNA) RNA: UUUGAUUAAUAUGAUAUCGUUCUUUCUUGUCGUAUUAUUCUUUCUCGAUAUCAUAUUAAUCUUU	40 nM
Ib_S2_P5E.1_K5.1_C5.1_H5.1_[A4C]_A5.1_[T5C]_F5.1_T5.1 (ssRNA) RNA: UUUGAUUAAUAUGAUAUCGUUCUUUCUUGUCCUAUUAUUCUUUCUCGAUAUCAUAUUAAUCUUU	22.6 nM
Ib_S2_P5E.1_K5.1_C5.1_H5.1_[A4C]_A5.1_[T5A]_F5.1_T5.1 (ssRNA) RNA: UUUGAUUAAUAUGAUAUCGUUCUUUCUUGUCAUAUUAUUCUUUCUCGAUAUCAUAUUAAUCUUU	5.71 nM
Ib_S2_P5E.1_K5.1_C5.1_H5.1_[A4T]_A5.1_[T5G]_F5.1_T5.1 (ssRNA) RNA: UUUGAUUAAUAUGAUAUCGUUCUUUCUUGUUGUAUUAUUCUUUCUCGAUAUCAUAUUAAUCUUU	6.64 nM
Ib_S2_P5E.1_K5.1_C5.1_H5.1_[A4T]_A5.1_[T5C]_F5.1_T5.1 (ssRNA) RNA: UUUGAUUAAUAUGAUAUCGUUCUUUCUUGUUCUAUUAUUCUUUCUCGAUAUCAUAUUAAUCUUU	11 nM
Ib_S2_P5E.1_K5.1_C5.1_H5.1_[A4G]_A5.1_[T6C]_F5.1_T5.1 (ssRNA) RNA: UUUGAUUAAUAUGAUAUCGUUCUUUCUUGUGUCAUUAUUCUUUCUCGAUAUCAUAUUAAUCUUU	8.03 nM
Ib_S2_P5E.1_K5.1_C5.1_H5.1_[A4G]_A5.1_[T6A]_F5.1_T5.1 (ssRNA) RNA: UUUGAUUAAUAUGAUAUCGUUCUUUCUUGUGUAAUUAUUCUUUCUCGAUAUCAUAUUAAUCUUU	11.9 nM
Ia_S2_P5E.1_K5.1_C5.1_H5.1_[G2C]_A5.1_F5.1_T5.1 (ssRNA) RNA: UUUGAUUAAUAUGAUAUCGUUCUUUCUUCUAUUAUUAUUCUUUCUCGAUAUCAUAUUAAUCUUU	2160 nM
Ib_S2_P5E.1_K5.1_C5.1_H5.1_[A4C]_A5.1_[T6A]_F5.1_T5.1 (ssRNA) RNA: UUUGAUUAAUAUGAUAUCGUUCUUUCUUGUCUAAUUAUUCUUUCUCGAUAUCAUAUUAAUCUUU	28.1 nM
Ib_S2_P5E.1_K5.1_C5.1_H5.1_[A4T]_A5.1_[T6C]_F5.1_T5.1 (ssRNA) RNA: UUUGAUUAAUAUGAUAUCGUUCUUUCUUGUUUCAUUAUUCUUUCUCGAUAUCAUAUUAAUCUUU	8.06 nM
